Experimental data published in paper PMC2670943 (Journal of molecular biology, 2009).
Like-named read-outs stand apart in the source and are kept apart here. One block for each binder: values may come before it.

What was measured:
crystal structure [1] = target: the molecule itself; experiment: crystal structure
[2] = target: T1, human GRASP55 N-terminal domain (residues 1–263) (human, UniProt Q9H8Y8-1 1-263); experiment: SPR
[3] = target: T2, human GRASP55 full length (residues 1–452) (human, UniProt Q9H8Y8-1 1-452); experiment: SPR
[4] = target: T1, human GRASP55 N-terminal domain …; experiment: AUC
[5] = target: T2, human GRASP55 full length (residues …); experiment: AUC
crystal structure [6] = target: the molecule itself; experiment: crystal structure; remark: listed apart in the source
crystal structure [7] = target: the molecule itself; experiment: crystal structure; remark: listed apart in the source

B1: human KCTD5 residues 34–234, seleno-methionine labeled (domain or fragment, UniProt Q9NXV2 34-234, looked up)
chain: ALAQRPGSVSKWVRLNVGGTYFLTTRQTLCRDPKSFLYRLCQADPDLDSDKDETGAYLIDRDPTYFGPVLNYLRHGKLVINKDLAEEGVLEEAEFYNITSLIKLVKDKIRERDSKTSQVPVKHVYRVLQCQEEELTQMVSTMSDGWKFEQLVSIGSSYNYGNEDQAEFLCVVSKELHNTPYGTASEPSEKAKILQERGSRM
modifications: seleno-methionine labeled (two seleno-methionine residues, M171 and M175, in the C-terminal domain)
stoichiometry N (crystal structure [1]): 5 subunits

koff [2]: 0.00223 s⁻¹ | kon [2]: 2590 M⁻¹ s⁻¹ | koff [3]: 0.00103 s⁻¹ | kon [3]: 870 M⁻¹ s⁻¹ | Kd [4]: 8.26 ± 1.6 µM | Kd [5]: 1.41 ± 0.26 µM
B2: human KCTD5 residues 34–234 ("full length" construct for structural and binding analysis), native (domain or fragment, UniProt Q9NXV2 34-234, looked up)
chain: B1 chain
stoichiometry N (crystal structure [6]): 5 subunits

B3: human KCTD5 N-module (residues 40–145) (domain or fragment)
chain: not shown
stoichiometry N (crystal structure [7]): 5 subunits
